These results are taken from patent publication US20240317826A1, “COMPOSITIONS AND METHODS FOR TREATING AND/OR I[…] AGENT FOR TREATING HIV-1 INFECTIONS” (priority 2021, published 2024).

A value given as a limit tells only on which side of the number the result lay.

The target in one experiment is GST-SAP18 (UniProt O00422). The experiment is described as follows: GST pull-down, bound protein quantitated from Western blot (FIG. 15c). In general terms: Immunoblotting shows a protein as a band on a membrane.
The next experiment deals with GST-INI1 (UniProt Q12824). The description is as above.
Experiment [1] deals with GST-CTD (C-terminal domain of HIV-1 integrase, aa 201-288, GST fusion) (HIV-1 (Hx3B)) (UniProt P04585). The experiment can be described thus: Alpha; GST-CTD 0.083 uM.
Experiment [2] shares this target. The experiment can be described thus: Alpha; GST-CTD 0.027 uM.

Sequence of GST-SAP18 (O00422 whole entry): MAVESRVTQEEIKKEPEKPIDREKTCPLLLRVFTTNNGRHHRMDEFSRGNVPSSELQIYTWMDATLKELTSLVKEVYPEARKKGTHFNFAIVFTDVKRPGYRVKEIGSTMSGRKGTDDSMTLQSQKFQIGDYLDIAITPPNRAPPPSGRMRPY

Turning to His6-IN(W235E) (enzyme), the % binding is 20% with GST-SAP18 and less than 5% in the experiment with GST-INI1.
A word on the Kd: it is the free concentration of one partner at which half of the binding sites on the other are occupied at equilibrium, for simple one-to-one binding. High values mean a looser complex, low ones a tighter complex. As to “His6-SUMO-INI1183-304 (from UniProt Q12824 183-304)”, the equilibrium dissociation constant (Kd) in experiment [1] was determined as 3 nM; in experiment [2] it was 3.5 nM.
